Measurements from the nanobody polyreactivity screen of Harvey et al. (2022).

Assay: yeast display, Sf9 membrane polyspecificity reagent, FACS + sequencing; frameworks hold sequencing errors
Outline: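 After 36–48 hours of galactose induction, yeast (Saccharomyces cerevisiae BJ5465) displaying a synthetic nanobody library were stained at 4 °C for 1 hour with 10% biotinylated, detergent-solubilized Sf9 membrane reagent. Streptavidin microbeads enriched the stained cells before FACS sorting into low and high (top ~1%) gates on anti-HA and streptavidin fluorescence. Each clone's polyreactivity label reflects its gate of origin.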

| Sequence | polyreactivity (PSR sort gate) |
| --- | --- |
| QVQLVESGGGLVQAGGSLRLSCAASGNTFRSYVMGWYRPAPGKARELVADISSGDGTNYADSVKGRFTISRDTAKNTVYLQMNSLKPEDTAVYYCAKDVYNFRSTHSYFTGYVSWGQGTQVTVSW | low polyreactivity |
| QVQLVESVGGLVQAGGSLRLSCAASGITFYYYVMGWYRQAPGKERELVAAIDTGDSTYYADSVKGRFTISRDNAKNTVYLQMNSLKPEDTAVYYCAVDYEADNELNGPDQEYGRDSWGQGTQVTVSS | low polyreactivity |
| QVQLVESGGGLVQAGGSLRLSCAASGTTFGRNTMGWYRQAPGKERELVAAISKSGGSTRYADSVKGRFTISRDNAKNTVYLQMNRLKAEDTAFYYCAARVYSLGYGGDYWGQGTQVTVSS | high polyreactivity |
| QVLLVESGGGFVQAGGSLRLSCSASGSIFSPYTMGWYRQATGKERELVAAISRGGNTYYADSVKGRFTISRDNAKNTVYLQMNSLKPEDTAVYYCAARAKYDRRTDGTSGYDYWGQGTQVTVSS | low polyreactivity |
| QVQLVDSGGGLVQAGGSLRLSCAASGSIILVNAMGWYRQAPGKEREFVAAISTSSGSTYYADSVKGRFTISRDNAKNTVYLQMNSLKPEDTAVYYCAADEVYSRGIWPVEDDYWGQGSQVTVSS | low polyreactivity |
| QVQLVESGGGLVQAGGSLRLSCAASGIIFPSYAMGWYRQAPGKERELVAAISLSGGRTYYADSVKGRFTISRDNAKNTVYLQMNSLKPEDTAVYYCAAYPTTRYSKYGYYWGQGTQVTVSS | high polyreactivity |
| QVQLVESGGGLVQAGGSLRLSCAASGRIFYYYAMGWYRQAPGKERELVAAISSRGASTYYADSVKGRFTISRDNAKNTVYLQMNSLKPEDTAVYYCAASTPFRSTRYDYWGQGTQVTVSS | high polyreactivity |
| QVQLVESGGGLVQAGGSLRLSCAASGLTFHRYAMGWYRQAPGKERELVAAINYSGGRTYYADSVKGRFTISRDNAKNTVYLQMNSLKPEDTAVYYCAAPRASGYYWGQGTQVTVSS | high polyreactivity |
| QVQLVESWGGLVQAGGSLHLSCAASGSTFQEYAMGWYRQAPGKERELVASIRWSGGRTYYADSVKGRFTISRDNAKNTVYLQMNSLKPEDTAFYYCAAGQWWYQVRFDYWGQGTQVTVSS | low polyreactivity |
| QVQLVESGGGLVQAGGSLRLSCAASGFTFLVYVMGWYRQAPGKVRELVAAISSCGSSTYYADSVKGRFTISRDNAKNTVYLQMNSLKPEDTAVYYCAAAPYYSHEYDYWGQGTQVTVSS | low polyreactivity |
| QVQLVESGGGLVQAGGSLRLSCAASGGTFSSNAMGWYRQAPGKERELVAAISGSGDRTYYADSVKGRFTISRDNAKNTVYLQMNSLKPEDTAVYYCAAEHETGAYYYWGQGTQVTVSS | high polyreactivity |
| QVQLVESGGGLVQAGGSLRLSCAASGLTFYYNAMGWYRQAPGKERELVAAISRSGGSTYYADSVKGRFTISRDNAKNTVYLQMNSLEPEDTAVYYCAAALRKEYDYWGQGTQVTVSS | high polyreactivity |
| QVQLVESGGGLVQAGGSLRLSCAASGSIFGWYAMGWYRQAPGKERELVAAISSSDGSTYYADSVKGRFTISRDNAKNTVYLQMNSLKPEDTAVYYCATDSAFTYAQYDYWGQGTQVTVSS | low polyreactivity |
| QVQHVESVGGLLQAGCSLRLSCAPSGRIFGENAIGWYRQAPGKEREFLAVISISDASTYYADSVKGRFTISRDNAKNTGYLQMNSLKPDDTAVYYCAADLTDFLYVASDYWGQGTQVTVSS | low polyreactivity |
| QVQLVESGGGLLQAGGSLRLSCADSGSTFGANSLRWYIQAPGKEREFVAAISGSGTTTYYADSVKGRFTISRDNAKNTFYLQMHRLKPEDTAVYYCDKTRIAHWLEYWGQGTQVTVSS | low polyreactivity |
| QVQLVESGGGLVQAGGSLRLSCAASGITFASYAMGWYRQAPGKERELVAAISRTGGSTYYADSVKGRFTISRDNAKNTVYLQMNSLKPEDTAVYYCAARIPYTGYDYWGQGTQVTVSS | high polyreactivity |
| QDQLVESGGGLVQAGGSLRLSCAASGSIFGGYGMGWYRQAHGKERELVAAITSGSSTYYADSVKGRFTISRDNAKNTVYLQMNSLKPEDTAVYYCAARPYPNSAYEGDYWGRGTQVTVSS | low polyreactivity |
| QVQLVESGGGLVQAGGSLRLSCAASGSIFDYYAMGWYRPAPGKERELVAAISDSGGSTYYADSVKGRFTISRDNAKNTVYLQMNSLKPEDTAVYYCNAVPRYQATWQESYDYDYWGQGTQVTVSS | high polyreactivity |
| QVQLVESGGGLVQAGGSLRLSCAASGIILPWNAMGWYRQAPGKERELVAAISWSGTSTYYADSVQGRFTISRDNAKNTVYLQMNSLKPEDTAVYYCAAAYWWSWRYDYWGQGTQVTVSS | low polyreactivity |
| QVQLVESGGGLVQAGGSLRLSCAASGLTIWRYAMGWYRQAPGKEREFVATISQNGGRTYYADSVKGRFTISRDNAKNTVYLQMNSLKPEVNAVYYCAADDWRWGYDYWGQGTQVTVSS | high polyreactivity |
| QVQLVESGGGLVQAGGSLRLSCAASGNILTTYAMGWYRQAPGKERELVAAIRWSDGSTYYADSVKGRFTISRDNAKNTVYLQMYSLKPEDNAVYYCAADYHYPTWQGGYHYGYWGQGTQVTVSS | high polyreactivity |
| QVQLVESGGGLVQAGGSLRLSCAASGRIFVPNAMGWYRQAPGKERELVAAITSSGSSTYYADSVKGRFTISRDNAKNTVYLQMNSLKPEDTAVYYCNTLWGGFSWFRVDSWGQGTQVTVSS | high polyreactivity |

| Sequence | polyreactivity (PSR sort gate) |
| --- | --- |
| QVQLVESGGGLVQAGGSLRLSCAASGITIYRYAMGWYRQAPGKERELVATITWSGGSTYYADSVKGRFTISRDNAKNTVYLQMNSLKPEDTALYYCAAYSPYIYQAYRYDYWGQGTQVTVSS | low polyreactivity |
| QVQLVESGGGLVQAGGSLRLSCAASGVTFHGYTMGWYRQAPGKERELVAAITSGGGTNYADSVKGRFTISRDNAKNTVYLQMNSLKPEDTAVYYCAAGFHKRVTPEILYDYWGQGTQVTVSS | low polyreactivity |
| QVQVVESGGGLVQAGGSLRLSCAASGSTFVIYAMGWYRQAPGKEMELVAGITYSGGRTYYADSVKGRFTISRDNAKNTVYLHMNSLKPEDTAVYYCNARSTWPSGRYAHYRRYYYWGQGTQVTVSS | high polyreactivity |
| QVQLVESGGGLVQAGGSLRLSCAASGNIFFSNAMGWYRQAPGKERELGASISQSGGSTYYADAVKGRFTISRDNAKNTVYLQMNSLKPEDTAVYYCAATQVRRGPAWGRDYWGQGTQETVSS | low polyreactivity |
| QVQLVESGGGLVQAGGSLRLSCAASGINFYRYAMGWYRQAPGKERELVAAITGSGGNTYYADSVKGRFTISRDNAKNTVYLQMNSLKPEDTAVYYCAKRDYRHQYNYWGQGTQVTVSS | high polyreactivity |
| QVQLVESWGGLVQAGGSLRLSCAASGSTFIQNAMGWYRQAPGKERELVAAITSGGGTNYADSVKGRFTISRDNAQNTVYLQMNSLKPEDTAVYYCAAEPFNYDDFWFGWEYQYEYWGQGTQVTVSS | low polyreactivity |
| QVQLVESGGGLVQAGGSLRLSCAASGFIFRTNAMGRYRQAPGKEREFVAAIRWSGGSTYYADSVKGRFTISRDNAKKTVYLQMNSLKPEDTAVYYCAAEIYLSTYFYPHSIYDYWGQGTQVTVSS | high polyreactivity |
| QVQLVESGGGLVQAGVSLRLSCAASGSTFAFYDMGWYRQAPGKERELVAGISSSGSTYYADSVKGPFTISRDNAKNTVYLQMNSLKPEDTAVYYCAADAPYLVPYGWWDYDYDYWGQGTQVTVSS | low polyreactivity |
| QVQLVESGGGLVQAGGSLRLSCAASGFTFGSYAMGWYRQAPGKERELVARISSDGSTNYAVSVNGRFTISRDNAKNTVYLQMNSLKPEDTAVYYCAADPVHRFPGTGGYWGQGTQVTVSS | low polyreactivity |
| QVQLEESGGGLVQAGGSLRLSCASSGYIFATYAMGWYRQAPGKERELVAAITSTGSTYYADSVKGRFTISRDNAKNTVYLQMNSLKPEDTAVYYCAAVSGYRARYYLYYYWGQGTQVTVSS | high polyreactivity |
| QLQLVESGGGLVQAGGSLRLSCAASVRIFDVYAMGWYRQAPGKERELVAAITWDGGSTYYADSVKGRFTISRDNAKNTVYLQMNSLKPEDTAVYYCAAEPVYTQRKGYDYWGHGTQVTVSS | low polyreactivity |
| QVQLEESGGGLVQAGGSLRLICAASGSIFDSNSMGWYRQAPGKVRELVAGISRGGGSTYYADSVKGRFTISRDNAKNTVYLQMNSLKPEDTAVYYCNVLTYRWLYARRYEYWGQGTQVTVSS | high polyreactivity |
| QVQLVESGGGLVKAGGSLRLSCAASGSIFNRYAMGWYRPAPGKEREFGARISKRGGGTYYADSVKGRFTISRDNAKNPVYLQMNRLKPEDTAVYYCNAGVPSAMDYCGQGTQVTVSS | high polyreactivity |
| QVQLVESGGGLVQAGGSLRLSCAASGSTFAVYAMGWYRQAPGKERELVATITGSGGSTYYADSVKGRFTISRDNAKNTVYLEMNSLKPEDTAVYYCAAEVVAWSLYEDFKTYDYWGQGTQVTVSS | low polyreactivity |
| QVQLVESGGGLVQAGGSLRLSCAASGRTFRRYAMGWYRQAPGKERELVAAISWGAGSTRYADSVKGRFTISRDNAKNTVYLQMNSLKPEDTAVYYCAAENTRAYGMYYWGQGTQVTVSS | high polyreactivity |
| QVQLVESGGGLVQAGGSLRLSCAASGSIFHPYAMGWYRQAPGKERELVAAISGGGTNTYYADSVKGRFTISRDNAKNTVYLQMNSLKPEDTAVYYCAAERYYWGQGTQVTVSS | high polyreactivity |
| QVQLVESGGGLVQAGGSLRLSCAASGIISIFNVMGWYRQAPGKERELVASITGRGGSTFYADSVKGRFTISRDNAKNTDYLQLNSLIPEDTAVYYCATDTGYTYPVTGLYDYWGQGTQVTVSS | low polyreactivity |
| QVQLVESGGGLVQEGGSLRLSCAACGFTFTTNAMGWYRQAPGKERELVAGITFIGGSTYYADSVKGRFTISRDNAKNTVYLQMNNLKPEDTAVYYCAAEWVLVYLQYTYEDYDYWGQGTQVTVSS | low polyreactivity |
| QVQLVESGGGLVHAGGSLRLSCAASGSIFCTNVMGWYRQAPGKERELVAAISYSDGSTYYADSVKGRFTISRDNAKNTVYLQMNILKPEDSAVYYCADYLYYYWGGYDYWGQGTQVTVSS | low polyreactivity |
| QVQLVESGGGLVQAGGSLRLSCSASGSNFYTNAMGWYRQAPGKERELVAVITASGGSTYYADSVKGRFTISRDYAKNTVYLLMNSLKPEDTAVYYCASDPVFNYDYWGQGTQVTVSS | low polyreactivity |
| QVQLVESGGGLVQAGGSLRLSCAATGSIINRYVMGWYRQAPGKEREFVAAIRNTGGSTYYADSVKGRFTISRDNAKNTVYLQMNSLKPEDPAVYYCAAVYRSAYDGLDHGYRRHDYWGQGTQVTVSS | high polyreactivity |
